How the values were obtained:
[1] = molecular target: T1, Recombinant human CD4 (R&D Systems, Cat. 10327-CD) (human, UniProt P01730 26-390, limits assumed); assay: BLI Octet, non-clonal supernatant on AMC sensor, 100 nM human CD4;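 note: hybridoma supernatants diluted 1:3, antibodies captured on AMC biosensors, association and dissociation with CD4 followed, curves smoothed and fit locally with 1:1 binding model for single-point kinetics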
T1 construct: Bought reagent; also called huCD4

[2] = molecular target: T1, Recombinant human CD4 (R&D Systems, …); assay: BLI Octet, non-clonal supernatant on AMC sensor, 100 nM human CD4, 1:1 local fit;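 note: Single-concentration kinetics per supernatant, with the 1:1 model fitted across both the association and dissociation phases of the sensorgram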

B1: 75110_11D03A (antibody, V domains shown)
VH: EVQLVESGGGLVQPGGSLRLSCAASGFTFSSYWMSWVRQAPGKGLEWVANINQDGNEKYYVDSVKGRFTISRDNAKNSLFLQMNSLRAEDTAVYYCAREGGQWLALDYWGQGALVTVSS
VL: DIQMTQSPSSVSASVGDRVTITCRASQGISSWLAWYQQKPGKAPKFLISGASSLQSGVPSRFSGSGSGTDFTLTISSLQPEDFATYYCQQANSFPWTFGQGTKVEIK
notes: Tested as non-clonal AlivaMab Mouse Kappa hybridoma supernatant, captured by anti-mouse IgG Fc sensor
Response [1]: 0.177
Kd [2]: 4.67 nM
koff [2]: 0.000524 s⁻¹
kon [2]: 112000 M⁻¹ s⁻¹

B2: 75110_01A06A (antibody, V domains shown)
VH: EVQLVESGGGLVQPGGSLRLSCAASGFTFSSYWMSWVRQAPGKGLEWVANINEDGNEKYYVDSVKGRLTISRDNAKNSLYLQMNSLRAEDTAVYFCAREGGQWLSLDYWGQGALVTVSS
VL: DIQMTQSPSSVSASVGDRVSITCRASQGISSWLAWYQQKPGKAPKILIYGASSLQSGVPSRFSGSGSGTDFTLTISSLQPEDFATYYCQQANSFPWTFGQGTKVEIK
notes: as for B1
Response [1]: 0.28
Kd [2]: 11 nM
koff [2]: 0.0013 s⁻¹
kon [2]: 120000 M⁻¹ s⁻¹

B3: 75110_07H07A (antibody, V domains shown)
VH: EVQVVESGGGLVQPGGSLRLSCAASGFTFSSYWMSWVRQAPGKGLEWVANIKEEGSEKYYVDSVKGRFTISRDNAKNSLYLQMNSLRAEDTAVYYCVREGGQWLALDYWGQGTLVTVSS
VL: DIQMTQSPSSVSGSVGDRVTITCRASQGISSWLAWYQQKPGKAPKLLIFGASSLQSGVPSRFSGSGSGTDFTLTISSLQPEDFATYYCQQANSFPWTFGQGTKVQIK
notes: as for B1
Response [1]: 0.2
Kd [2]: 3.1 nM
koff [2]: 0.00035 s⁻¹
kon [2]: 110000 M⁻¹ s⁻¹

B4: 75110_03D16A (antibody, V domains shown)
VH: EVQLVESGGGLVQPGGSLRLSCAASGFTFSSYWMSWVRQAPGKGLEWVANINQDGGEKYYVDSVKGRFTISRDNAKNSLYLQMNSLRAEDTAVYYCVREGGQWLALDYWGQGTLVTVSS
VL: DIQMTQSPSSVSASVGDRVTITCRASQGISSWLTWYQQKPGKAPKFLIYAASSLQSGVPSRFSGSGFGTDFTLTISSLQPEDFATYYCQQANSFPWTFGQGTKVEIK
notes: as for B1
Response [1]: 0.25
Kd [2]: 6 nM
koff [2]: 0.0013 s⁻¹
kon [2]: 220000 M⁻¹ s⁻¹

B5: 75110_09G15A (antibody, V domains shown)
VH: EVQLVESGGGLVQPGGSLRLSCAASGFTFSDYWMSWVRQAPGKGLEWVANINQDGSEKYSVDSVKGRFTISRDNAKNSLYLQMNSLRAEDTAIFYCAREGGQWLALDYWGQGTLVTVSS
VL: DIQMTQSPSSVSASVGDRVTITCRASQGISSWLAWYQQKPGKAPKLLIYGASSLQSGVPSRFSGSGSGTDFTLTINSLQPEDFTTYYCQQANIFPWTFGQGTKVEIK
notes: as for B1
Response [1]: 0.1
Kd [2]: 290 nM
koff [2]: 0.011 s⁻¹
kon [2]: 37000 M⁻¹ s⁻¹

B6: 75110_04K10A (antibody, V domains shown)
VH: EVQLVESGGGLVQPGGSLRLSCAASGFTFSSYWMSWVRQAPGKGLEWVANINQDGSEKYYVDSVKGRFTISRDNAKNSLYLQLNSLRAEDTAMYYCAREGGQWLSLDYWGQGTLVTVSS
VL: DIQMTQSPSSVSASVGDRVTITCRASQGISSWLAWYQQKPGKAPKVLIYGVSSFQSGVPSRFSGSGSGTDFILTISSLQPEDFATYYCQQANSFPWTFGQGTKVEIK
notes: as for B1
Response [1]: 0.23
Kd [2]: 6.3 nM
koff [2]: 0.0018 s⁻¹
kon [2]: 290000 M⁻¹ s⁻¹

B7: 75110_09N20A (antibody, V domains shown)
VH: EVQLVESGGGLVQPGGSLRLSCAASGFTFSSYWMSWVRQAPGKGLEWVANINEDGSEKYYVDSVKGRFTISRDNAKNSLYLQMNSLRAEDTAVYYCVREGGQWLALDYWGQGTLVTVSS
VL: DIQMTQSPSSVSASVGDRVTITCRASQGISSWLAWYQQKPGKAPKLLIYAASSLQSGVPSSFSGSGSGTDFTLTINSLQPEDFATYYCQQANSFPWTFGQGTKVAIK
notes: as for B1
Response [1]: 0.13
Kd [2]: 15 nM
koff [2]: 0.0019 s⁻¹
kon [2]: 130000 M⁻¹ s⁻¹

B8: 75110_12C19A (antibody, V domains shown)
VH: EVQLVESGGGLVQPGGSLRLSCAASGFTFSSYWMSWVRQAPGKGLEWVANIKEDGSDKYYVDSVKGRFTISRDNAKNSLYLQMNSLRAEDTAVHYCVREGGQWLALDYWGQGTLVTVSS
VL: DIQMTQSPSSVSGSVGDRVTITCRASQGISSWLAWYQQKPGKAPKLLIYGASSLQSGVPSRFSGSGSGTDFTLTISSLQPEDFVTYYCQQANSFPWTFGQGTKVEIK
notes: as for B1
Response [1]: 0.106
Kd [2]: 0.627 nM
koff [2]: 9.63e-05 s⁻¹
kon [2]: 154000 M⁻¹ s⁻¹

B9: 75110_02N15A (antibody, V domains shown)
VH: EVQLVESGGGLVQPGGSLRLSCAASGFTFSSYWMSWVRQAPGKGLEWVANINEDGNEKYYVDSVKGRFTISRDNAKNSLFLQMNSLRAEDTAVYFCAREGGQWLALDHWGQGALVTVSS
VL: DIQMTQSPSSVSASVGDRVTITCRASQGISSWLAWYQQKPGKAPKFLISGASSLQSGVPSRFSGSGSGTDFTLTISSLQPEDFATYYCQQANSFPWTFGQGTKVEFK
notes: as for B1
Response [1]: 0.16
Kd [2]: 6.7 nM
koff [2]: 0.00069 s⁻¹
kon [2]: 100000 M⁻¹ s⁻¹

B10: 75110_14I16A (antibody, V domains shown)
VH: QVQLQESGPGLVKPSETLSLTCTVSNGSISSYYWSWIRQSAGKGLEWIGRIYTSGSTNYNPSLKSRVTMLVDTSKNQFSLKLSSVTAADTAVYYCARDREDYYYYGMDVWGQGTTVTVSS
VL: DIQMTQSPSSLSASVGDRVTITCQASHDISNYLNWYQQKPGKAPKLLLYYASNLETGVPSRFSGSGSGTDFTFTITSLQPEDIGTYSCQQYDNLPLTFGGGTKVEIK
notes: as for B1
Response [1]: 0.0852
Kd [2]: < 0.001 nM
koff [2]: < 1e-07 s⁻¹
kon [2]: 42700 M⁻¹ s⁻¹

B11: 75110_14P05A (antibody, V domains shown)
VH: EVQLVESGGGLVQPGGSLRLSCAASGFTFSSYDVHWVRQATGKGLEWVSTIGTAGDTYYPGSVKGRFTISRENAKNSLYLQMNSLRAGDTAVYYCARGGFYYYGMDVWGQGTTVTVSS
VL: EIVLTQSPGTLSLSPGERATLSCRASQSVSSSYLAWYQQKPGQTPRLLIYGASSRATGIPDRFSGSGSGTDFTLTISRLEPEDFAVFYCQQSGSSPFTFGPGTKVDVK
notes: as for B1
Response [1]: 0.149
Kd [2]: 12.3 nM
koff [2]: 0.00185 s⁻¹
kon [2]: 150000 M⁻¹ s⁻¹

B12: 75110_01E08A (antibody, V domains shown)
VH: EVQLVESGGGLVQPGGSLRLSCAASGFTFNNYDMHWVRQATGKGLEWVSTIGTAGDTYYPASVKGRFTIYRENAKNSLYLQMNSLRAGDTAVYYCARGGDYYYGMDVWGQGTTVTVSS
VL: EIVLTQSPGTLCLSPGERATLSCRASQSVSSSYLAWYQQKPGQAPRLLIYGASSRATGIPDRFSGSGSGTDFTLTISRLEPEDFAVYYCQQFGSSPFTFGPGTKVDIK
notes: as for B1
Response [1]: 0.1
Kd [2]: 10 nM
koff [2]: 0.0014 s⁻¹
kon [2]: 140000 M⁻¹ s⁻¹

B13: 75110_10L22A (antibody, V domains shown)
VH: EVQLVESGGGLVQPGGSLRLSCAASGFTFSSYDMHWVRQATGKGLEWVSTIGTAGDTYYPGSVKGRFTISRENAKNSLYLQMNGLRAGDTAVYYCARGNYFYYGVDVWGQGTTVTVSS
VL: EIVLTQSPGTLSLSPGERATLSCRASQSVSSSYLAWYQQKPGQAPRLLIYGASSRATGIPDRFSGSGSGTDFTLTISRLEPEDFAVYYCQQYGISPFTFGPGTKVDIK
notes: as for B1
Response [1]: 0.113
Kd [2]: 117 nM
koff [2]: 0.0065 s⁻¹
kon [2]: 55700 M⁻¹ s⁻¹

B14: 75110_14N19A (antibody, V domains shown)
VH: QVQLQESGPGLVKPSETLSLTCTVSGGSISRYYWSWIRQPAGKGLEWIGRICTSENPNYNPALKSRVTMSVDTSKNQFSLKLSSVTAADTAVYYCARELERLNYYGMDVWGQGTTVTVSS
VL: DIQMTQFPSSLSASVGDRVTITCQASQDISNYLNWYQQKPGKAPKLLIYDASNLESGVPSRFSGRGSGTDFTFTISSLQPEDFATFYCQQYDTLPITFGQGTRLEIK
notes: as for B1
Response [1]: 0.105
Kd [2]: 19.2 nM
koff [2]: 0.00274 s⁻¹
kon [2]: 143000 M⁻¹ s⁻¹
